Measured values reported in the DeepSol protein solubility set.

Assay: soluble on expression in E. coli; label from the status in PepcDB or PDB records
For “MAHHHHHHMQFHQFLCRFRNQVLLKGAFWSCPHQFRLGLHDRWKVNLVKVHIGVLGFFFKTHGESVVSGAKGDNLHGCRNGGVSALKVTNAFLNKIRNDQHTQIVPTIYQRGTPRQLSHEMSKIRILKVPMEHRRAFAHDTVIVSTLHRSVKTDVRGDTHRGTVLLHWKMHCLR”, the “soluble on expression in E. coli” value was “not soluble”. With “MAHHHHHHMQPRHFHVCNFLLTCSCERGHPRVRCLRFAALRFAKPHFALLCRTSLCFFFATPTRAELATDGLKGRIYEVNLADLNNDEDQAHKKIKLCCDHIINKDCYTDFCGLSITRDKLCSLIRKGYTLIEGYTDVKTIDNYQLRMFCIAFTKKRPNQTKTTCYAQTSQIKKIRKKMVDIMNAEASKVMLKDLVKKFIPESIGKEVEKQCKKIYPLQNVLIRKVKILKRPKLDISKLMELHTDSKEDAGKNVKSLPESKEATNILSAELKH” the “soluble on expression in E. coli” value was “soluble”. For “MAHHHHHHMQSSALRPSSLLRAYHYVHPKTGRPIRQYRKYGDPRFINNEVALIKGLFALITTDFGMVTQSQLENARLAILRRMPRGSFALTMHTDYEEFPVVQKSPESRMGAGKSNIHHFAYKFTTGVPLFEITALSSRRLNQAEAEGIFLAGRSFIPLQTAVVPRGRVDEYHVFK”, the “soluble on expression in E. coli” value was “soluble”. In the case of “MAHHHHHHMRARRSCKFAEYLSTYAILEHIGIHPTTLIEKRDAAVGVGVYVRDACDAGTALLAVPSKRFCTTSVLSRVGLKTSFCSPWRADSEVPSTAFAGPTCDVQGGILSFLTGSTQWPELAWRLALEQHRSVSPLWGWLQSLPSVEELADRRDVAERQCRVHHTMLLPYYLKGRQRIREETVAAYSQLRAQNILPCFDRFAWAVDVVLSRGLLLPTAWPTAGGVFTNSTTDGEHEEEDSDPLPHTSLECGVVPFLDLVNAPDDVGRVVNADIEIATSLETLPKFLTDELAADATARGRGGDDLAEVKRLLETHYYLCLTLRKPLRASEEVILEWQVPVLTTEVLTAAEDAIVSRFLKYMF”, the “soluble on expression in E. coli” value is reported as “not soluble”. For “MAHHHHHHMRHSTYVEVCLRNIAYNVECIRRIAGKAELIPMVKGNAYGHGMGKVSEYLHNVCGVHTFGVASLGEALELIESQPSIAEKAQNEIFVFSDTEVLNEGCQSYYQPCGRWAVRLTPILGTLPQLKAFCASNAFNNTKLCLKLETGMNRLGLRFDELEEAVPILKQRGGVDLLLQHFGIAGSVERLAETLNHYEAFKNAKKFLHDSGVEVRATSVSNSGAVEQRIGLEETYIRPGIMLYGPRSVTSKNLWNGKFASCFYTKVLHHFPLRKGEGVGYDLTPVKADSVIVMLPIGYADGFLCTYKGMPIKVTPEDAAEPIIGTVHGRINMDMAAVVVYPEEVGKNIGNIMAAVKKESRIHVWGDDIEEKAVSVGAIPHQLTCGLSIRVPRIYM”, the “soluble on expression in E. coli” value was “not soluble”. With “MAHHHHHHMRNSKEGNLIVHDLDFMKRILLNDERKWGEESAPGEGRTESSHQPKIITIVLNNTLCAHSAKFIANSDVLICADGGANRLYNLCQSLATERGAIDDEGSSLKGEEDKNTALHASHTNERSHHVSGRHTISDLFNMPVEKKEKALKRPTEIVPHIICGDFDSINAHVYSYYKNKSVIFEKCANQENTDLDKCIDVIRGYIRTNDKILILGATGNRFDHTCANISCLYKNASLNSLYLIGENNFLFLLQQGSHIIHVSPDVFCKGCGILPFGGKCTIKTEGLKYNLNDECLSFDTLISSSNEVVQREVKIFNDSPVVWSAQLRGDAQSHTHS” the “soluble on expression in E. coli” value was “soluble”. With “MAHHHHHHMRNSLRLRLSSTSSSLLRSTFWLRQCGSGGCGFSGGPGGYPTDADALAKILTQAKKGSFNGSSSSPSDFFDGRFVGGSPTMDPAMLQDMHQKLNQSLTPEVRESMKAMMESIQRGDGMPQMGMMAFGVGENEKGKKVARGAKLMFDPSTGKLSKDFVEKQLEDDDPVLPKETVGDYNTEGAIEVEFEEDARKEASVRENIPEAEVIVEEVPREK” the “soluble on expression in E. coli” value was “not soluble”. In the case of “MAHHHHHHMRPLLVFGLRGTLLERIHASRVPSGMPGGAITVGMSRVWLRPSAMETLLALQQHCTLAVWSSTTARNTTPLMEAVFSQHAQKVNFAFVWSREHTTADEFRRVSATSRDDQHATVKDLREVYRRFPEIATPQNTVLIDDTPSKGKLNASNFLWLETCEELKIENPNVMPALRRFVEEHLLAEREDVRRLLPARVPWGQQ”, the “soluble on expression in E. coli” value is reported as “not soluble”. For “MAHHHHHHMRRSVIRTRKEFLERKQHERVHEAIHARKEQFRSAVETATPLPGHLKKDALALKKFTELDDAQTRNLTTTVDDEYANAGQEDPHVLVTTSRNASQKLLEFAKEVRLIVPNAVRMNRGNLSVHQLMDAARKENYTDVLVLQESQGVPDSLIVSHLPLGPTVTFTIHNLVARHDIDGVGTMSEQYPHLVFENFSTKLGIRIKDVLRYLFPVPKADASRVLTFDNENDFISFRHHTFKKEKGKKQVELTEVGPRFELTPYRIVLGTLEMDDAETEWVLQPYMNTAKKRRLL”, the “soluble on expression in E. coli” value was “soluble”. For “MAHHHHHHMSASLKKTALHLFHLAQQAKMDAFAGYHMPISYGRLGVLKEHLYTREVAGIFDVSHVGQYEVRGADRERFLEHVTPVDLQRIRAGHGALTMLTNAQGGIKDDCIVTKMADHLFLVLNAGCKEKDVAHMESVLRESAMKGADVQLVPLDRSLIALQGPQAAAILSEFMDDVPGMGFMQCRQRVNIKGMEVQVTRCGYTGEDGFELSVSNTDIVALVELLMSRKAEMIGLGARDSLRLEAGLNLYGHELTEDINPVAARFMWVISKRRMAEGGFIGYEPIKYLRDNASKGAVPRLRVGLVSTGPVAREKTVIEVGGKPVGEVTSGCPSPCLKKNIAIGYLDRELAKDGVKVDLVVRGRRVAAVVVTPPFVPARYYRKPK”, the “soluble on expression in E. coli” value was “not soluble”. For “MAHHHHHHMSATPPPPPPPSSNASTGYPHTRASPGTYRGAGRGAYSRGPSYQSSGSSPSSSPIYTSGPSRRGGGNTRVRVHTYGFVHADPAASLAAAPPASHTSAPRATPDVATPPLPSASSAASPPLSSISSDVLSSLNASVQESLSGYLYTDAIELAQRLFDLEASYAHLHLLAHCYTVSGATGTAYRLLQHYYPFLELHVTRPRTAGASTSAAGGAAGGVGSGVLPFDARRTWTASYGVHPSQHPFSSGMPSATAAVTFSASSNENNLTSDEFELGYETVDLQSQWDCQYLLGVCCYRTQHYEDGARVLSQLLYVCHQVTTTSSVLRRRLQQLRQQQQQVTVRSDTSEEDDAGVAAAVRATERQLAGLCLRDGGAHFAGALLVGSVREASPAAPDRG”, the “soluble on expression in E. coli” value was “not soluble”. In the case of “MAHHHHHHMSEAAALESIMRPPSPELQRRLFVPTPSLHASAETARQHRAERQSALLAERATAYTCHPAILPVSREMAASERRRNGWMQLPVGDVLMERHKRVEGHLEEKRQQEVARFSFRPTISARARTMQSSRPVVERLYSGTADAGTDTATFTDVTNLRSSSGEKTKTASMATYQRLYQDAVTRRAHDQMQEKLARVRSKNEFCPCTDSVSGLIASKRGDTTRERLLRPKAALDVARDVYPQETFAPRINTSTRFERVPLSARAAIWQRRRSERLHHAVVARCEVEMRECTFHPRTRRGLTALSQAHARATADSYTGPLASIMSSAEELLRRVDLEASAPLPESGRCAPLLDDDGKLPGTVPVDILAVLHEAEHVSEALRLLPDTNLDLDLSQHTSLG”, the “soluble on expression in E. coli” value is reported as “not soluble”. For “MAHHHHHHMSGEKKEALKNDLPPIPGCDTDGQTYKSAEEMWAAELRGNLYDAETGWYGRSLQYWSKVPATVSGVLGGMEHIHDVDLKESRAFITSIPDRGTSRALDCGAGIGRVTKYLLSTLYTVTDLLEPVANMLEKAKEELKGYPVGEFFLSSMETVNLKPNTYDLIVIQWTAIYLTDDDFVKFLAHCKTALTLRGYIFFKENCSCDERFVVDKEDSSLTRSDAHYKRIFAAAGVEVVKETMQKEWPDDLFKVKMYALR”, the “soluble on expression in E. coli” value was “soluble”. With “MAHHHHHHMSIYCRLASPPVFLRALHTVSVSRDGWATVVFTDSHVVLHVEGTDENMTATCTLPKNLFAEYAVVETRFALHIPTLIDALLMLG” the “soluble on expression in E. coli” value was “not soluble”. With “MAHHHHHHMSIYCRLASPPVFLRALHTVSVSRDGWATVVFTDSHVVLHVEGTDENMTATCTLPKNLFAEYAVVETRFALHIPTLIDALLMLGPSVATASTRAVLAYPTDDAKLLVELTPTDRVAGGGSCGGFSGGGPMTQSDLGV” the “soluble on expression in E. coli” value was “soluble”. For “MAHHHHHHMSLRLCVCTATANGEYYMSMFNKHLSSFFKTITLGSTVDDFKQDKDSKDSIILYVEGPVGHDAIKYLCDDYHLPKEQRRVLWIYSLTAGVDVYRLGELVKELQDIPFANARGCYSSVLAEHVMYSMLYFYRQTWRSLASRAEHKWDPFLMVELRGKKVGIIGYGDIGQASAKLLSAFGMEVTGVKRSASTKEVDEYGVRLVHGDAERERVLRESDFVVNILPGTEETKRFFNKELFSMMKPSAVYISIGRGITQNEDDLACALRDGVIRGASVDVFEREPLPAESPLWDISDDKLLLTAHSADRTANLVPDSVRRFIGLVNEYAKTKRLDTYLVDPVRGY”, the “soluble on expression in E. coli” value was “not soluble”.
